Laboratory results: publication PMC6105683 (Nature Communications, 2018)

B1: GST-ZCCHC3 (natural protein, UniProt Q9NUD5 1-403, looked up)
chain: MATGGGAEEERKRGRPQLLPPARPAARGEEADGGREKMGWAQVVKNLAEKKGEFREPRPPRREEESGGGGGSAGLGGPAGLAAPDLGDFPPAGRGDPKGRRRDPAGEAVDPRKKKGAAEAGRRKKAEAAAAAMATPARPGEAEDAAERPLQDEPAAAAGPGKGRFLVRICFQGDEGACPTRDFVVGALILRSIGMDPSDIYAVIQIPGSREFDVSFRSAEKLALFLRVYEEKREQEDCWENFVVLGRSKSSLKTLFILFRNETVDVEDIVTWLKRHCDVLAVPVKVTDRFGIWTGEYKCEIELRQGEGGVRHLPGAFFLGAERGYSWYKGQPKTCFKCGSRTHMSGSCTQDRCFRCGEEGHLSPYCRKGIVCNLCGKRGHAFAQCPKAVHNSVAAQLTGVAGH
modifications: lysine residues labelled with a Blue-NHS labeling kit, dye:protein molar ratio of 3
notes: also called recombinant ZCCHC3

Key:
Experiment in all cases: MST
GST-cGAS [1] = system: GST-cGAS
GST-ZCCHC3;GST-cGAS = system: GST-ZCCHC3;GST-cGAS
GST-ZCCHC3 = system: GST-ZCCHC3
GST-cGAS [2] = target: T1, GST-cGAS (UniProt Q8N884 1-522); conditions: both partners purified
T1 construct: also called recombinant cGAS
T1 sequence (Q8N884 whole entry): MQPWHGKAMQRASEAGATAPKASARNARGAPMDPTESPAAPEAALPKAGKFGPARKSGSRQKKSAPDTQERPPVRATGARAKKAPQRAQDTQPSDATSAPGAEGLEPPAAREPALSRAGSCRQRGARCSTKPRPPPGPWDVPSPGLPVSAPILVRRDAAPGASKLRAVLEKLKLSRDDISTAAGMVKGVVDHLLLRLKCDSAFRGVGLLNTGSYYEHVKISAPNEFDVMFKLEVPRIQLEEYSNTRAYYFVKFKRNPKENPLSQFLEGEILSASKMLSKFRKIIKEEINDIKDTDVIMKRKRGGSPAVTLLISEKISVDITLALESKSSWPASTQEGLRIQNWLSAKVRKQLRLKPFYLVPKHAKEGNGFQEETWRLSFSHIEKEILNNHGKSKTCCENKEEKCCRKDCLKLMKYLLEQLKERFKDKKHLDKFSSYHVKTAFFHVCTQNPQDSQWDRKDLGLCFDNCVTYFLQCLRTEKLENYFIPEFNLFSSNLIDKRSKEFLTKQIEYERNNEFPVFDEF

Row | Molecule | Kd (GST-cGAS [1]) [nM] | Kd (GST-ZCCHC3;GST-cGAS) [nM] | Kd (GST-ZCCHC3) [nM] | Kd (GST-cGAS [2]) [nM]
1 | HSV60 | 600 | 7.62 | 866 | –
2 | B1 | – | – | – | 79.6 ± 12.5
